Source: a protein production outcome set (Wang et al. 2014)

Assay: label from the status in PepcDB records
In the case of “MFKITPFSTQQHVIIQITDTHLLEDPQQEFVGINPERSFHCVMQHIRQHHAQIDAIIHTGDLAQTPTPATYARYLDFMQSFGVPFFHVPGNHDHPEFFPFHQASPSELSIVVLGNWHVILMNSAVVGQVDGWINDQQIQQLRDHLAAHPDTPTIVACHHHPFDMHSKWIDQHKLKNTPDLLATFKHYPQIRAVLCGHVHQESLHRWEHIDFLSSPSTSVQFKPRSDEFAFDTLPSGYRILRLNSDGQFDSNIHRIENMLQNINTEISGY”, the protein production is reported as “failed”.
With “MFKKEIILGILCLFAACHSNDEIIEEQESPKNEQQEPKARVDIILSHEEQAMSESTNDFAFQLFKQVCVSENRKTNIFISPFSVSLCLSMSANGANGNTLTEIKKVLGFSSSSMDEVNTYNQKLMSSLLNIDNTTQIGIANSVWINQGFVVKNTFIDINKLKYNAWVESLDFSSASAIATINAWCARNTENRLVDIMDEISPEARLILINALYFKGKWTNPFSKEVTKNDFFTNIDGEQVKVDMMCQEESFRCMNNEKFAIAEFPYGNEAFSMVVVLPVENSSLEESLLWLSNDAWKQCETQMSYQKLQVKMPKFSFKYQKPLNSDMSVLGMKDAFILGLADFRNISASENLYLSSLEQFTYLEVNEEGTESAAITTEVPATSTGDDKDIIHFFMDRPFIFMIKEKSTGLILFMGQVTKL” the protein production was “failed”.
In the case of “MFKKRLNKDKINDCYTWEEELPDGSYDMGFHGNLNHMEKGKSGYVTHKQLDKKLEVFKQDLLVELSEKFVTKEEFRAQGKQIKELQIEQKAQGKTLQLILEALQGINKRLDKLESKLEHHHHHH”, the protein production is reported as “not failed”.
In the case of “MFKKTFSMICCVIFLQGCSQEQEVKKEMTNMETALLAATEKNETNTVISLLKQGANINATDNQGRTPLMIATYKNDVKTAKALIKAGADVNIQDDMKNNPFLYAGAEGYLDILKLTINAGADPTITNRYGGTALIPASEHGYIDVIKELLTRTNIDVNHVNNLGWTALMETIVLSNGNETQQQVIRLLIEHGADVNIPDNDGVTPLEHARAHNFAEIEKILLEGNK”, the protein production is reported as “failed”.
In the case of “MFLIILIKSLIIGGLVGVGVGAGAARMFHAPTTQGMGAFRTLGELNSCEGDPASHFSFGLGFFFNAWASSVAAGSFTQDVDHRIIPNWGAAALMLKNRNVGETLHDPKKMAISCGIIGMIVVAFLNLTASSVPEALQVTAVKVLVPAANLLVNTVMPVIFWLAAIDAGKKSGFWATIFGGAAQLIMGNAVPGLVLGILIGKGVEESGWNRVTKVMMVAIVALFVLSGFFRGFDMKMIESFHLTVPNWLDMIHNSLSGK”, the protein production is reported as “failed”.
With “MFLSDPLPAGGDPVTRLTRYVTRELLPPLLAGTLLFTAILSFGYFFISSQWLSGVPVSLIARWIGYQLPDTLVKVLPMAVVLMTVVAFGRMNTERELVAVQAGGIGLGRVTRPAAVVGLLVTALSVWLSLWVAPRANVETRGLYWDALTGAGLSQLVGKTVDLGQGLTLAMQGYDAGARQMQGVRVEKWDKDNFRQGMVVFADAGKFEGNQLSLTGYQVYRVDYAAAAALSGVADNDPAAFREAVQKVFPLVQVPEDRNAALNLDTGLSRKQTLAQYADAIGADAEGWPELITKLTAPGVPQSERDAARVNLNRKLALPFANLVLVLAALPFALRFGRTLGVSLGVALVIAVAYYLLFSVGLTLAGLLPGLPELGVWLANIVFALGGLWLLRRA” the protein production was “failed”.
In the case of “MFLSGAHSFNANCRRQRQRVFGAPRVPLGESKICCVWAQHFLPCSRVYDPMTSKVSSPTLLEALSSDFLACKICLEQLHTPKTLPCLHTYCQDCLAQLDIGGQVRCPECRETVPVPPEGVAAFKTNFFVNGLLDLVKARAAGDSHSGKPTCALCPLVGGKSSGGPATARCLDCADDLCQACADGHRCSRQTHKHRVVDLVGYRAGWYDEEARERQASQCPQHPGETLCFLCQPCSQLLCKDCRLGPHIDHPCLPLAEAVRSRKPGLEELLAGVDSNLLELEATRVAEKEALALLREQAASVGTQVEEAAERILKSLLAQKQEVLGQLRALVEAAEEATRERLTKIESQEQVAKAAAAFARRVLSLGLEAEILSLEGAITQRLRQLQDTPWTSGPTRCVLPQLELHPGLEDKNCHLLRLSFEEPRQSQKDGGKVGAGTQGGDEAQSQGDDRTKTGKQGGAQPLIPKEGKAQNPPEDDEVLIERGNRPNKKKKCKGRGKSVSREPSPILRPNLEGSGPLPRPVFSWSFPTRMPGDKRSPRITGLCPYGPQEILVADEQNRVLKRFSLNGDYKGTVPVPEGCSPCSVAALQNAVAFSANAKLYLVSPEGEVQWRRSLSLAQSSHAVAAMPCGDRVAVSVAGHVEVYKKEGSLATRFIPGGKASRGQRALVFLTTSPQGNFVGSDWQQNSVVFCDGLGQVIWEYKGPGLHGCQPGSVSVDKKGYIFLTLREVNKVVILDPKGSLLGDFLTAYHGLEKPRVTTMVDGKYLVVSLSNGTIHVFRVRFPDS”, the protein production is reported as “failed”.
With “MFLTLSGADMSALIKGSGPHHVVVLNGWFGHAAGWGAFADYLDLGNYTWHFWDYRGYGNRKDDAGEFTLEEISADIVAYIDSIEAEKVSILGHSMGGVFMQKVLADSATPIASLVGISAVAAAGTPFDEDSRKLFTSAGHNPDSRRAIIDFTSGSRQPAAWLDDLTDSTVQNSTPEAVEKYFFAWADCNFAADLGTQDLPVYILTGDLDPAVTKTAVESAFGPIYQNLTVEELHDVGHYAIFEHPLGLAARVLRFLDAV” the protein production was “failed”.
In the case of “MFLTVKLLLGQRCSLKVSGQESVATLKRLVSRRLKVPEEQQHLLFRGQLLEDDKHLSDYCIGPNASINVIMQPLEKMAL”, the protein production is reported as “failed”.
With “MFMIKVITPETNHPKEGGILSALVSIYNCTIHIRKPRFTADQYKKYLHDHNQLLSHFVLHEHHSLAKEFPVMGVHLKELDRINPAQVHPDIKIISTSIHSIADAGNLSHPFEYIFYSPLFQSISKENYGTNNSLADLKKTVSELKEQTGIPIIGLGGIYEANIDLVKKSGFDGAALLGAVWVQSDPLAAFGRIASMILEHHHHHH” the protein production was “failed”.
For “MFNDWRRVLALSGKALGAILFCEAVGLLAAWVTQTSVTTWYPTLTKPSFTPPNWVFAPAWTTLYALMGVAAFLVWRCGPDRTRVRTALTAFGLQLAANAGWSFAFFGARSPALGLVVILGLWGLLAWTMDRFFRVRPVAGWLLVPYLAWVTYALALNAAIWGLN”, the protein production was “failed”.
For “MFNNKQKQLVIILISLLLTFTSQASLASDTTILNEIINPQLIHIYEWETLSVYEKENVSQKPANWDSAESFYGSTRLSLLGEERFYRAKFTIGWHHRTRNLAISVGPLKGTDEVYINGFRVDDSGSGDYDLFFQNSYRVYRLPRNKTWFSWFNYTKENELLIKLSSSKRGQVLDSDYVEIGDYETLALKSRDFDSTIKTSQGSAIALLFMLILFIIFLHVNQYNKKSNTLFGFFIFYLSLSIASTSLFLNGPEYDGELLLSLSACLDLVSLVVFIKIVSDKFDLNISHYKRNEKSIKIFGTVSVLCILIFSDIFFAQKWFNLIIYIVMLLVVISTIHQLVIGRNIGGANYSIVSALMIMFLGVAFNGLWGGNSWPISPYHIGAILSSIFLLYSIAQDFKKMTLSMHAMSSRLVNIREIERARLTRDIHDGVGQGLATIRLFITMNINNFEPQLGISLKNEVDQTSNTLKSVIRNLKPIEMDDGNPSEAIIELARHLCEIAQIEMKVIHSDKADMNTENAYQLYRIGQEALNNSIKHSCCTLITIDIQRDRDRLIMSISDNGKGIKKQVENLGYGLSSMQERALLIGGQLRINNAIDSGVQVFLEVPIND”, the protein production was “failed”.
For “MFPHLALLNAHKRMHTDGEQQQQQQHNAQAGGDSIAVVSAQGLVQAQNIIGNGQMGQIQIVSSDTLEPVQQSVMQQQQHESKASKCINCGSSMLQQSKRKGPKQVRCESCMQAEQTAQQQQQLFVAQDG”, the protein production was “failed”.
For “MFQPHLPVRLPCYDLAPITSFTLGRSLRLRTSGTPGFHGLTGGVYKARERIHRAMADARLLANPASRSRVADFDPN”, the protein production was “failed”.
With “MFQTQFSPINFRETKIIKANYKRFHEIRAKVQTETNDALNENEISAIKKSGFRGHVDISYKSSASFSPLPLQQYFTTMKKIVMRKLRSPVSHCMLVTKCQTTLQIGYIDWMESKSLSNIID” the protein production was “failed”.
In the case of “MFRKLAAECFGTFWLVFGGCGSAVLAAGFPELGIGFAGVALAFGLTVLTMAFAVGHISGGHFNPAVTIGLWAGGRFPAKEVVGYVIAQVVGGIVAAALLYLIASGKTGFDAAASGFASNGYGEHSPGGYSMLSALVVELVLSAGFLLVIHGATDKFAPAGFAPIAIGLALTLIHLISIPVTNTSVNPARSTAVAIFQGGWALEQLWFFWVVPIVGGIIGGLIYRTLLEKRD”, the protein production is reported as “not failed”.
